According to patent US20220033501A1 (SHANGHAI PHARMAEXPLORER, published 2022):
Changes are numbered by the printed parent chain.

T1: human TIM-3 extracellular domain protein with hFc tag (hTIM-3-hFc) (human, UniProt Q8TDQ0 22-200)
T1 construct: not shown: human IgG Fc fragment (hFc) of the pCpC vector
T1 sequence: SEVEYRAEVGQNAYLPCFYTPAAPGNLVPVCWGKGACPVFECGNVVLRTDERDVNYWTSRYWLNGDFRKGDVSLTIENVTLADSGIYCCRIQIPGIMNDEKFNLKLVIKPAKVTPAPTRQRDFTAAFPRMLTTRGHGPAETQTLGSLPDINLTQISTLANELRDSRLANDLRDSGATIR

T2: monkey TIM-3 extracellular domain protein with hFc tag (cTIM-3-hFc) (monkey)
T2 construct: not shown: human IgG Fc fragment (hFc) of the pCpC vector
T2 chain: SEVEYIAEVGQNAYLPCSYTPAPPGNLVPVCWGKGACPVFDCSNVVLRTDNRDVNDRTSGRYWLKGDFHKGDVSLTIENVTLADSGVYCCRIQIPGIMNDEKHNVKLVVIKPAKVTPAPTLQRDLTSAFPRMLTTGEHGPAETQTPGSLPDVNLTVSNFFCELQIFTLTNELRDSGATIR

T3: human TIM-3 on CHOK1 stable cell line (CHOK1-hTIM-3) (human, UniProt Q8TDQ0 22-301)
T3 sequence: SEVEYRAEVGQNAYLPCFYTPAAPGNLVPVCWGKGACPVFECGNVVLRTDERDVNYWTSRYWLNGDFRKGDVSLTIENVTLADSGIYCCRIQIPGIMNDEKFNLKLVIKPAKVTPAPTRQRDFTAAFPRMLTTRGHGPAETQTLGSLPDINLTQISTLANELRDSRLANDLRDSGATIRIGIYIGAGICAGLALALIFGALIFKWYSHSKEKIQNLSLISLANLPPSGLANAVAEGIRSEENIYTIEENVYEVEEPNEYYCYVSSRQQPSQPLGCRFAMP

T4: monkey TIM-3 on CHOK1 stable cell line (CHOK1-cTIM-3) (monkey)
T4 chain: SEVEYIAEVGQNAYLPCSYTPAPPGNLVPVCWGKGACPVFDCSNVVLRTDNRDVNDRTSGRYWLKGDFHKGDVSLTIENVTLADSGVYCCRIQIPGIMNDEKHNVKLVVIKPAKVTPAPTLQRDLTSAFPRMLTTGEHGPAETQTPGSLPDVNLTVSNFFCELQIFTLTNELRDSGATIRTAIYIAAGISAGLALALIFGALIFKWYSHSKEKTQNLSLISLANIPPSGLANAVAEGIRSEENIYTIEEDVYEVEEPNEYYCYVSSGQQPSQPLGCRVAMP

B1: 18D2H2 fully human TIM-3 antibody (human IgG4, kappa) (antibody, V domains shown)
VH: EVQLVESGGDLVQPGGSLRLSCAASGFTFSTYWMTWVRQAPGRGLEWVANIKQDGSAKYYVDSVKGRFTLSRDDAKNSLYLQMNSLRAEDTAVYYCARGSNWFDYWGQGTLVTVSS
VL: ETVMTQSPATLSVSPGERATLSCRANQNVYSNLAWYQQKPGQAPRLLIYDASTRATGFPARFSGSGSGTEFTLTISSLQSEDFAVYYCQQYNNWPLTFGGGTKVEIK
B2: 34B6D8 fully human TIM-3 antibody (human IgG4, kappa) (antibody, V domains shown)
VH: B1 VH with D10G, R43K, G44R, D54G, S56G, A57D, L70I, R72T, D74N, Y105P
VL: EIVMTQSPATLSMSPGERATLSCRASQSVYDNLAWYQQKPGQAPRLLIYGASTRATGIPARFSGSGSGTEFTLTISSLQSEDFALYYCQQYTHWPITFGQGTRLEIK
B3: 39E5H1 fully human TIM-3 antibody (human IgG4, kappa) (antibody, V domains shown)
VH: EVQLVESGGGLVQPGGSLRLSCAASGFTFSSYWMSWVRQAPGKGLEWVANIKRGGSERYYVDSVKGRFTISGDNAKNSVYLQMNSLRAEDTAVYYCARGSNWFDPWGQGTLVTVSS
VL: B2 VL with I2T, T10I, M13V, D31S, P40L, G50D, L85V, T92N, H93N

Key:
[1] = target: T1, human TIM-3 extracellular domain …; assay: ELISA, coated human TIM-3 ECD protein, 0.0007 nM antibody
[2] = target: T2, monkey TIM-3 extracellular domain …; assay: ELISA, coated monkey TIM-3 ECD protein, 0 nM antibody
[3] = target: T3, human TIM-3 on CHOK1 stable cell line …; assay: FACS, CHOK1-hTIM-3 cells, 1.6 nM antibody
[4] = target: T3, human TIM-3 on CHOK1 stable cell line …; assay: FACS, CHOK1-hTIM-3 cells, 0.013 nM antibody
[5] = target: T1, human TIM-3 extracellular domain …; assay: ELISA, coated human TIM-3 ECD protein, 66.667 nM antibody
[6] = target: T1, human TIM-3 extracellular domain …; assay: ELISA, coated human TIM-3 ECD protein, 0.6667 nM antibody
[7] = target: T4, monkey TIM-3 on CHOK1 stable cell line …; assay: FACS, CHOK1-cTIM-3 cells, 0 nM antibody

| Binder | OD450 [1] | OD450 [2] | Mean fluorescence intensity [3] | Mean fluorescence intensity [4] | OD450 [5] | OD450 [6] | Mean fluorescence intensity [7] |
| --- | --- | --- | --- | --- | --- | --- | --- |
| B1 | 0.11 | 0.13 | 232 | 11.6 | 2.78 | 2.58 | 2.8 |
| B2 | 0.11 | 0.17 | 212 | 9.2 | 3.1 | 3.11 | 2.9 |
| B3 | 0.1 | 0.16 | 191 | 9.2 | 3.01 | 3.01 | 3 |
